Earlier results, collected in paper PMC5680199.

Target: human thrombin (human) (UniProt P00734+P00734)
Test: not stated (cited)
Conditions: phi29 DNA polymerase buffer adjusted to 10 mM K+ (optimum), ThT-HE 5 uM, 37 C, 2 h; pH not given in material

29-mer thrombin-binding aptamer (TBA)
Kd: 0.5 nM
